Assay [1] deals with T1, mouse TREM2 on cells (mouse, UniProt Q99NH8 19-227).
T1 construct: whole, on cells; Used for the recombinant protein on BWZ/BW cells (with mouse DAP12) and for the native protein on mouse macrophages and dendritic cells; the cell type stands under assay; also called mTREM2; mTrem2
T1 sequence (looked up): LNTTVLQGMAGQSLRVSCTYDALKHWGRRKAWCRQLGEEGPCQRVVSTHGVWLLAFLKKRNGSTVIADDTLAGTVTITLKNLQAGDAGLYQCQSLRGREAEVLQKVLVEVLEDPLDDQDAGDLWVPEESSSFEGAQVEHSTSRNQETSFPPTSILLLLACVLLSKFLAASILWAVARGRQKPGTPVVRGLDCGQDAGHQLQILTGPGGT
Kind of assay: FACS, mTrem2 cells. For orientation: A flow cytometer gives signals particle by particle.

For assay [2], the target named is T2, human TREM2 Fc fusion protein (human, UniProt Q9NZC2 19-174).
T2 construct: also called hTREM2-Fc; not shown: Fc part not specified
T2 sequence: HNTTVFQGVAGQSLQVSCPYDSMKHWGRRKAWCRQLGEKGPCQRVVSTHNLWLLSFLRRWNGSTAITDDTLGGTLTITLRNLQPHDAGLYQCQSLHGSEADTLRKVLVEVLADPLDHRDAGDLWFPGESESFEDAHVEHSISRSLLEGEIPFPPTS
In words: ForteBio or MSD-SET, avid.

The target in assay [3] is T3, mouse TREM2 Fc fusion protein (mouse, UniProt Q99NH8 19-171).
T3 construct: also called mTREM2-Fc; not shown: Fc part not specified
T3 sequence (looked up): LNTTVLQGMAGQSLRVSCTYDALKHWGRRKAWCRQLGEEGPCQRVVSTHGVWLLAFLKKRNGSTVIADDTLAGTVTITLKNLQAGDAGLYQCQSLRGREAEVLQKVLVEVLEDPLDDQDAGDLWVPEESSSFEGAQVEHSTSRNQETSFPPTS
Kind of assay: ForteBio or MSD-SET, avid. On the technique in general: In BLI a coated tip is dipped into the sample, and binding shifts an interference pattern.

Assay [4] addresses T4, human monomeric His tagged TREM2 protein (human, UniProt Q9NZC2 19-174).
T4 construct: also called hTREM2-HIS
T4 sequence: T2 sequence
In words: ForteBio or MSD-SET, monovalent.

Assay [5] has as its target T4, human monomeric His tagged TREM2 protein. Kind of assay: ForteBio or MSD-SET, monovalent. This is another data set of the same source.
Method: (§1) The binding affinity of each anti-TREM2 antibody was determined by measuring their KD by ForteBio or MSD-SET. […] Briefly, ForteBio affinity measurements were performed by loading IgGs on-line onto AHQ sensors. Sensors were equilibrated off-line in assay buffer for 30 min and then monitored on-line for 60 seconds for baseline establishment. Sensors with loaded IgGs were exposed to 100 nM antigen for 5 minutes, then transferred to assay buffer for 5 min for off-rate measurement. Kinetics were analyzed using the 1:1 binding model.
(§2) Solution equilibrium titrations (SET) were performed in PBS+0.1% IgG-Free BSA (PBSF) with antigen held constant at 50 pM and incubated with 3- to 5-fold serial dilutions of antibody starting at 10 nM. Antibodies (20 nM in PBS) were coated onto standard bind MSD-ECL plates overnight at 4° C. or at room temperature for 30 min. Plates were then blocked for 30 min with shaking at 700 rpm, followed by three washes with wash buffer (PBSF+0.05% Tween 20). SET samples were applied and incubated on the plates for 150s with shaking at 700 rpm followed by one wash. Antigen captured on a plate was detected with 250 ng/mL sulfotag-labeled streptavidin in PBSF by incubation on the plate for 3 min. The plates were washed three times with wash buffer and then read on the MSD Sector Imager 2400 instrument using 1×Read Buffer T with surfactant. The percent free antigen was plotted as a function of titrated antibody in Prism and fit to a quadratic equation to extract the KD. To improve throughput, liquid handling robots were used throughout MSD-SET experiments, including SET sample preparation.
Assay [6] addresses T1, mouse TREM2 on cells. Kind of assay: FACS, WT mouse dendritic cells.
Method: (§3) Cells were harvested, plated at 10⁵/ml in a 96 well plate, washed, and incubated in 100 ul PBS containing 10-50 ug/ml Mab and Fc blocking reagent for 1 hour in ice. Cells were then washed twice and incubated in 100 ul PBS containing 5 ug/ml PE-conjugated secondary antibody for 30 minutes in ice. Cells were washed twice in cold PBS and acquired on a BD FACS Canto. Data analysis and calculation of MFI values was performed with FlowJo (TreeStar) software version 10.0.7.
Assay [7] deals with T5, human TREM2 on primary human cells (human, UniProt Q9NZC2 19-230).
T5 construct: also called hTREM2; TREM2 on primary human dendritic cells (hDC) and human macrophages
T5 sequence: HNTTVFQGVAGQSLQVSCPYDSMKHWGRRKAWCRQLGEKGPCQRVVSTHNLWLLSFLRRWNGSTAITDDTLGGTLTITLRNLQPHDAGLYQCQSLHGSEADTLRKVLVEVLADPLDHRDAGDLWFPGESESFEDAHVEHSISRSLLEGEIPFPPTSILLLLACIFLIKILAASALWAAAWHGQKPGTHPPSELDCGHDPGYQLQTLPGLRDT
Kind of assay: FACS, primary human dendritic cells.

Assay [8] concerns the target T1, mouse TREM2 on cells. In words: FACS, WT mouse macrophages.
Method: as §3
In assay [9] the target is T5, human TREM2 on primary human cells. In words: cell-based or functional assay.
Assay [10] has as its target T2, human TREM2 Fc fusion protein. Kind of assay: ForteBio or MSD-SET, avid. The source holds these as a separate data set.
Method: as §1, §2
Assay [11] addresses T3, mouse TREM2 Fc fusion protein. Kind of assay: ForteBio or MSD-SET, avid. This is another data set of the same source.
Method: as §1, §2
Assay [12] addresses T1, mouse TREM2 on cells. In words: FACS, BWZ T2 cells.

Where a chain is given by its changes, count along the chain named. Read-outs that look alike come from different tables or passages of the source.

In general, Kd refers to the concentration at which binding is half-saturated.

B1: Ab8 (antibody, human IgG1, V domains shown)
VH: QLQLQESGPGLVKPSETLSLTCTVSGGSISSSSYYWGWIRQPPGKGLEWIGSISYSGSTYYNPSLKSRVTISVDTSKNQFSLKLSSVTAADTAVYYCARGPYRLLLGMDVWGQGTTVTVSS
VL: DIQMTQSPSSLSASVGDRVTITCRASQSISSYLNWYQQKPGKAPKLLIYGASSLQSGVPSRFSGSGSGTDFTLTISSLQPEDFATYYCQQIDDTPITFGGGTKVEIK
notes: human IgG1
With B1, the MFI with mouse TREM2 on cells [1] is 523 MFI. In addition, the Kd in assay [2] was determined as 0.723 nM; in assay [4], 15 nM. Moreover, in [3], the binding result is on record as “no binding”.

B2: Ab71 (antibody, human IgG1, V domains shown)
VH: QVQLVQSGAEVKKPGASVKVSCKASGYTFTSYYMHWVRQAPGQGLEWMGIINPSGGSTSYAQKFQGRVTMTRDTSTSTVYMELSSLRSEDTAVYYCARDISTHDYDLAFDIWGQGTMVTVSS
VL: EIVMTQSPGTLSLSPGERATLSCRASQSVSSSYLAWYQQKPGQAPRLLIYGASNRATGIPDRFSGSGSGTDFTLTISRLEPEDFAVYYCQQAGSHPFTFGGGTKVEIK
notes: human IgG1
In the case of B2, the MFI with mouse TREM2 on cells [1] was 804 MFI. Further, the Kd in assay [2] is 2.77 nM; in assay [4] it was 64.7 nM. For the same molecule, in assay [3], the binding result is “no binding”.

B3: Ab63 (antibody, human IgG1, V domains shown)
VH: QVQLVQSGAEVKKPGASVKVSCKASGYTFTSYGISWVRQAPGQGLEWMGWISTYNGNTNYAQKLQGRVTMTTDTSTSTAYMELRSLRSDDTAVYYCARGSGSGYDSWYDWGQGTLVTVSS
VL: DIQMTQSPSSVSASVGDRVTITCRASQGIDSWLAWYQQKPGKAPKLLIYAASSLQSGVPSRFSGSGSGTDFTLTISSLQPEDFATYYCQQAYSLPPTFGGGTKVEIK
notes: human IgG1
The molecule B3 showed an MFI with mouse TREM2 on cells [1] of 1720 MFI. For the same molecule, the Kd in assay [2] was found to be 1.13 nM; in [4] it was 49.6 nM. The binding result in assay [3] is reported as “no binding”.

B4: Ab84 (antibody, human IgG1, V domains shown)
VH: B3 VH
VL: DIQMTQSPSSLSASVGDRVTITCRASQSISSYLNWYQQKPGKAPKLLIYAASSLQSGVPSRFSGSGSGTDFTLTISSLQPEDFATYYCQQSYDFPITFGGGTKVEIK
notes: human IgG1
B4 showed an MFI with mouse TREM2 on cells [1] of 799 MFI. For the same molecule, the values for the Kd in [2] and in [4] were 1.16 nM and 60.4 nM, respectively. In addition, the binding result in assay [3] is given as “no binding”.

B5: Ab1 (antibody, human IgG1, V domains shown)
VH: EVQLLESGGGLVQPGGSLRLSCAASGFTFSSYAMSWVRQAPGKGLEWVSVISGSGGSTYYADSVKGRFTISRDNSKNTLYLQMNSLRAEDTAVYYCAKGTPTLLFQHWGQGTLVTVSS
VL: EIVMTQSPATLSVSPGERATLSCRASQSVSSNLAWYQQKPGQAPRLLIYGASTRATGIPARFSGSGSGTEFTLTISSLQSEDFAVYYCQQLPYWPPTFGGGTKVEIK
notes: human IgG1
With B5, the dissociation constant (Kd) in assay [5] turned out to be 6.67 nM; in assay [10], 0.705 nM; in [11], 4.86 nM. Besides, the MFI is 393 MFI with mouse TREM2 on cells [6], 82.3 MFI in the assay with mouse TREM2 on cells [8] and 12600 MFI with mouse TREM2 on cells [12]. In addition, the hDC % positive in assay [7] came to 64.9%. For the same molecule, the “Induction of CD86 & CD83 Human hDC plate (% CD83+CD86+ cells)” value in [9] is 87.2%. Besides, the “Induction of CD86 & CD83 hDC solution (% CD83+CD86+ cells)” value in assay [9] was determined as 3%.

B6: Ab2 (antibody, human IgG1, V domains shown)
VH: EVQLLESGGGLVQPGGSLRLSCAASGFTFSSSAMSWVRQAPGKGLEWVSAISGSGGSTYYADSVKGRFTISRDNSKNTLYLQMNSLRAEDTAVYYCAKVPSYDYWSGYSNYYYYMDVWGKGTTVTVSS
VL: B5 VL with M4L, S30G, L91Y, P92F, Y93F, W94Y
notes: human IgG1
In the assay with mouse TREM2 on cells [1], B6 yielded an MFI of 1430 MFI. Further, the Kd in assay [2] was determined as 0.592 nM; in assay [4] it was 24.1 nM. Moreover, the binding result in [3] was “no binding”.

B7: Ab9 (antibody, human IgG1, V domains shown)
VH: EVQLVQSGAEVKKPGESLKISCKGSGYSFTSYWIGWVRQMPGKGLEWMGIIYPGDSDTTYSPSFQGQVTISADKSISTAYLQWSSLKASDTAMYYCARLHISGEVNWFDPWGQGTLVTVSS
VL: EIVLTQSPATLSLSPGERATLSCRASQSVSSYLAWYQQKPGQAPRLLIYDASNRATGIPARFSGSGSGTDFTLTISSLEPEDFAVYYCQQFSYWPWTFGGGTKVEIK
notes: human IgG1
For the molecule B7, the Kd amounted to 6.32 nM in assay [5] and 0.348 nM in assay [10]. Further, the MFI in the assay with mouse TREM2 on cells [6] was determined as 538 MFI; with mouse TREM2 on cells [8], 171 MFI; with mouse TREM2 on cells [12] it was 15700 MFI. The molecule further registered a hDC % positive in assay [7] of 65.8%. Moreover, the “Induction of CD86 & CD83 Human hDC plate (% CD83+CD86+ cells)” value in assay [9] is 79.3%. Moreover, the “Induction of CD86 & CD83 hDC solution (% CD83+CD86+ cells)” value in assay [9] was determined as 5.6%.

B8: Ab7 (antibody, human IgG1, V domains shown)
VH: QVQLVQSGAEVKKPGASVKVSCKASGYTFTSYYMHWVRQAPGQGLEWMGIINPSGGSTTYAQKFQGRVTMTRDTSTSTVYMELSSLRSEDTAVYYCARTSSKERDYWGQGTLVTVSS
VL: B7 VL with N53K, F91R, S92I, Y93S, W94Y, W96I
notes: human IgG1
B8 displayed an MFI with mouse TREM2 on cells [1] of 10900 MFI. Also, the Kd in assay [2] turned out to be 1.05 nM; in [3], 1.11 nM; in [4], 33.4 nM.

B9: Ab68 (antibody, human IgG1, V domains shown)
VH: QVQLVESGGGVVQPGRSLRLSCAASGFTFSSYGMHWVRQAPGKGLEWVALIWYDGSNKYYADSVKGRFTISRDNSKNTLYLQMNSLRAEDTAVYYCAKPGSMTDYWGQGTLVTVSS
VL: B7 VL with F91R, S92A, Y93N, W94Y, W96I
notes: human IgG1
In turn, B9 had an MFI with mouse TREM2 on cells [1] of 2100 MFI. Also, the figures for the Kd in assay [2], in [3] and in [4] were 6.68 nM, 3.26 nM and 109 nM, respectively.

B10: Ab78 (antibody, human IgG1, V domains shown)
VH: QVQLVESGGGVVQPGRSLRLSCAASGFTFSSYGMHWVRQAPGKGLEWVAVIWYDGSNKYYADSVKGRFTISRDNSKNTLYLQMNSLRAEDTAVYYCARTPYPWIYFDLWGRGTLVTVSS
VL: B7 VL with F91A, S92D, Y93N, W96F
notes: human IgG1
B10 yielded an MFI with mouse TREM2 on cells [1] of 433 MFI. The results for the Kd in assay [2] and in assay [4] were 0.851 nM and 37.3 nM, respectively. In addition, in assay [3], the binding result is reported as “no binding”.

B11: Ab66 (antibody, human IgG1, V domains shown)
VH: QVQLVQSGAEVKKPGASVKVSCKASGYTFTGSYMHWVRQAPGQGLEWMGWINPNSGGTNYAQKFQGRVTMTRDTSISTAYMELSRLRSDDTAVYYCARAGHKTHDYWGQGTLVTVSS
VL: B7 VL with A9G, F91R, Y93A, W94Y, W96I
notes: human IgG1
In the case of B11, the MFI with mouse TREM2 on cells [1] was 4100 MFI. Besides, the results for the Kd in assay [2], in assay [3] and in assay [4] were 1.98 nM, 3.88 nM and 60.7 nM, respectively.

B12: Ab69 (antibody, human IgG1, V domains shown)
VH: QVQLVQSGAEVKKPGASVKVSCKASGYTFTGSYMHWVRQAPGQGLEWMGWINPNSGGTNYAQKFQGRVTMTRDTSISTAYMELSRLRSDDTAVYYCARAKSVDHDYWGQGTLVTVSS
VL: B7 VL with F91R, S92A, Y93D, W94Y, W96I
notes: human IgG1
In turn, B12 yielded an MFI with mouse TREM2 on cells [1] of 629 MFI. Further, the Kd in assay [2] was found to be 3.75 nM; in assay [3] it was 3.4 nM; in [4], 59.7 nM.

B13: Ab45 (antibody, human IgG1, V domains shown)
VH: QVQLVQSGAEVKKPGASVKVSCKASGYTFTSYYMHWVRQAPGQGLEWMGIINPSGGSTSYAQKFQGRVTMTRDTSTSTVYMELSSLRSEDTAVYYCARGPGYTTALDYYYMDVWGKGTTVTVSS
VL: EIVMTQSPATLSVSPGERATLSCRASQSVSSNLAWYQQKPGQAPRLLIYGASTRATGIPARFSGSGSGTEFTLTISSLQSEDFAVYYCQQLDDWFTFGGGTKVEIK
notes: human IgG1
On to B13, for which the results for the Kd in assay [5] and in assay [10] were 0.654 nM and 0.229 nM, respectively. In addition, the MFI is 652 MFI with mouse TREM2 on cells [6], 141 MFI in the assay with mouse TREM2 on cells [8] and 16300 MFI with mouse TREM2 on cells [12]. The hDC % positive in assay [7] worked out at 78.8%. For the same molecule, the “Induction of CD86 & CD83 Human hDC plate (% CD83+CD86+ cells)” value in assay [9] was 65.5%. The “Induction of CD86 & CD83 hDC solution (% CD83+CD86+ cells)” value in assay [9] worked out at 4.3%.

B14: Ab58 (antibody, human IgG1, V domains shown)
VH: EVQLVQSGAEVKKPGESLKISCKGSGYSFTSYWIGWVRQMPGKGLEWMGIIYPGDSDTRYSPSFQGQVTISADKSISTAYLQWSSLKASDTAMYYCARLGIYSTGATAFDIWGQGTMVTVSS
VL: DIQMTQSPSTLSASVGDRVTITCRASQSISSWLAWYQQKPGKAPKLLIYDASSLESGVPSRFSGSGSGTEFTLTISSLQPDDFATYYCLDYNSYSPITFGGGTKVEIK
notes: human IgG1
Molecule B14 came in with an MFI with mouse TREM2 on cells [1] of 1870 MFI. Further, the Kd in [2] stood at 0.575 nM; in assay [4] it was 2.73 nM. The binding result in [3] is listed as “no binding”.

Source of the values: patent US20260209350A1 (Alector, published 2026).
